According to publication PMC12507091, “The CsWRKY50-CsREM1-CsTSⅠ module inhibits theanine biosynthesis in tea plants under drought stress”:

T1: CsREM1-GST (Camellia sinensis)
T1 chain: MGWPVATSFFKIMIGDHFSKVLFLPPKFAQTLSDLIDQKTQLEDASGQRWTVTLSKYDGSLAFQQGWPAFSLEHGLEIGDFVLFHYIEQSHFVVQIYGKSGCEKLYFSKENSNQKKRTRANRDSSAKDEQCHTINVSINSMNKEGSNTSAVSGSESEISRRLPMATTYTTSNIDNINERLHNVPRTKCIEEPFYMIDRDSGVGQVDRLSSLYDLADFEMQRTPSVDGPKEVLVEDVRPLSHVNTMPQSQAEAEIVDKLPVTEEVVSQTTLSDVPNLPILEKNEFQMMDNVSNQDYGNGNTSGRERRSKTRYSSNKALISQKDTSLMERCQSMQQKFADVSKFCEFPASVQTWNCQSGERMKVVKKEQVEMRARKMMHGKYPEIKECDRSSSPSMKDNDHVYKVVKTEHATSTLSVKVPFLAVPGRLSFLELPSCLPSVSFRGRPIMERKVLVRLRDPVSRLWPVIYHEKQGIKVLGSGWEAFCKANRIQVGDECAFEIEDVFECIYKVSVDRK

B1: CsREM1 promoter Probe (dsDNA)
DNA 1: TTTTGTCTATGTTTTGACTTACTAATAATT
DNA 2: AATTATTAGTAAGTCAAAACATAGACAAAA
B2: CsTSI promoter Probe-2 (dsDNA)
DNA 1: TTACAACATGCTACACAGACTCGTAAA
DNA 2: TTTACGAGTCTGTGTAGCATGTTGTAA
B3: CsTSI promoter Probe-1 (dsDNA)
DNA 1: TATGTAATTTTATGTAGAGTTATACAT
DNA 2: ATGTATAACTCTACATAAAATTACATA

What was measured:
CsWRKY50-GST = CsWRKY50-GST (Camellia sinensis); test: EMSA; not stated (EMSA protocol per Zhu et al. 2024); settings: protein: recombinant; tags: GST (pGEX-4T, N-terminal by vector); blunt
CsREM1-GST = molecular target: T1, CsREM1-GST; test: as above; settings: protein: recombinant; tags: GST (pGEX-4T, N-terminal by vector); blunt

Sequence of CsWRKY50-GST (Camellia sinensis) (chain, as listed by the source): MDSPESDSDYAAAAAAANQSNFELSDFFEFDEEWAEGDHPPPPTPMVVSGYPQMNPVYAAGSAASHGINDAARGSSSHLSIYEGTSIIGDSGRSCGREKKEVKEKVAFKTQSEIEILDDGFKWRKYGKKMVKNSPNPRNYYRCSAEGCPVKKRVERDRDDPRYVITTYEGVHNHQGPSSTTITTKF

Row | Binder | binding result (CsWRKY50-GST) | binding result (CsREM1-GST)
1 | B1 | binds | 
2 | B2 |  | binds
3 | B3 |  | binds
